B1: RLP43 W-box, unmethylated (dsDNA)
DNA 1: CGTAGGGTCAAGCTGT
DNA 2: ACAGCTTGACCCTACG
B2: RLP43 W-box 5mC4 (dsDNA)
DNA 1: CGTAGGGTCAAGCTGT
DNA 2: ACAGCTTGACCCTACG
modifications: 5-methyl-dC at forward strand position 9 (W-box C4)
B3: RLP43 W-box 5mC4 + 5mC1 5mC2 (dsDNA)
DNA 1: CGTAGGGTCAAGCTGT
DNA 2: ACAGCTTGACCCTACG
modifications: 5-methyl-dC at forward position 9 (C4) and reverse positions 10 and 11 (C2, C1)

For this series, the target named is T1, AtWRKY40 DBD (Arabidopsis thaliana, UniProt Q9SAH7 131-207).
T1 sequence: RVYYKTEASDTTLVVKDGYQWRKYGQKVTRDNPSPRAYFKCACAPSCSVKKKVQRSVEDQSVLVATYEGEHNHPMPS
Put plainly: BLI; steady state; BLI (Octet RED96e, SA sensors): 50 mM Hepes pH 7, 150 mM NaCl, 0.05% Tween20, 25 C, 1000 rpm; duplex loaded at 40 nM, protein 0.25-10 uM. To be noted: protein: recombinant; tags: N-terminal 6xHis (pET28a); label: biotin on forward strand (printed at 5' end); blunt.
On to B1, for which the Kd (commonly the concentration at which binding is half-saturated) stood at 0.63 µM.
On to B2, for which the Kd amounted to 12 µM.
Consider B3, for which the Kd was 9.2 µM.

For the origin of these results see doi:10.1101/2022.09.26.509487, “DNA methylation at a single cytosine embedded in the W-box cis-element repels binding of WRKY transcription factors through steric hindrance”.
